# In patent publication US10426871B2, “Nanostructure surface coated medical implants and methods of using the same” (The Regents of the University of California, priority 2007, dated 2019):
# Key:
# [1] = Release of proteins from nanotubes into PBS (Micro-BCA); assay type: physicochemical; parameters: time point at which all the protein is released from the nanotubes: unit: min; settings: for time point at which all the protein is released from the nanotubes: PBS, room temperature, 70 rpm
# Procedure: In order to release the proteins from the nanotubes, the surfaces were immersed in 500 μl of PBS in a 24-well plate at room temperature with orbital shaking at 70 rpm. 200 μl of samples were taken after specific intervals of time to determine the release kinetics. Samples were collected periodically for up to 120 minutes. The solution was replaced with 200 μl of fresh PBS every time the samples were taken. The samples were analyzed for protein content using a commercially available Micro-BCA assay kit and the concentration was adjusted for dilutions due to replacement of fresh PBS.
# [2] = XPS of protein-loaded and protein-adsorbed nanotube surfaces; assay type: physicochemical; settings: Adsorbed (control)
# Procedure: To evaluate the differences in amounts of protein in nanotubes, X-ray photoelectron spectroscopy (XPS) analysis was carried out. XPS is a surface sensitive technique which can detect changes in surface composition for up to 2-20 atomic layers, depending on the material. Since the nanotubes are approximately 400 nm long, XPS can be used to verify the differences in surface concentrations due to different amounts of BSA and LYS loaded. The loaded nanotube surfaces along with adsorbed surfaces were mounted on an XPS stage. Three spots per sample were analyzed. The analysis was conducted on a SSI S-Probe Monochromatized XPS Spectrometer which uses an Al-Kα-X-ray source (1486.6 eV) with an Omni Focus III small area lens and multichannel detector. A concentric hemispherical analyzer (CHA) was operated in the constant analyzer transmission mode to measure the binding energies of emitted photoelectrons. The binding energy scale was calibrated by the Au4f7/2 peak at 83.9 eV, and the linearity was verified by the Cu3p1/2 and Cu2p3/2 peaks at 76.5 and 932.5 eV respectively. Survey spectra were collected from 0 to 1100 eV with pass energy of 160 eV, and high-resolution C1s spectra were collected for each element detected with pass energy of 10 eV. Survey and high resolution spectra were collected at a 65° take off angle, defined as the angle spanned by the electron path to the analyzer and the sample surface. All spectra were referenced by setting the hydrocarbon C1s peak to 285.0 eV to compensate for residual charging effects. Data for percent atomic composition and atomic ratios were calculated using the manufacturer supplied sensitivity factor.
# To evaluate the differences in amounts of protein in nanotubes, X-ray photoelectron spectroscopy (XPS) analysis was carried out. […] LYS and BSA adsorbed surfaces were used as controls. There is a steady increase in N/C ratios with increasing amounts of protein loaded into the nanotubes. A more precise way to characterize protein on the surface is to determine the fraction of C—N and N—C═O peaks in overall C1s peak. The C—N and N—C═O peaks are characteristic of proteins which are at a shift of 0.8 eV and 1.8 eV respectively from the C—C peak (285 eV). Thus, high resolution C1s scans were taken and the peak fit analysis software provided with the XPS instrument was used to determine % of C—N and N—C═O in the overall C1s peak (Table 3). A convolution of Gaussian components was assumed for all the peaks. There is an increase in the intensity for the […], C—N and N—C═O peaks with increasing amounts of proteins loaded into the nanotubes.
# [3] = cited from earlier work
Substance,time point at which all the protein is released from the nanotubes ([1]; 200 μg loaded),time point at which all the protein is released from the nanotubes ([1]; 400 μg loaded),time point at which all the protein is released from the nanotubes ([1]; 800 μg loaded),C—C fraction of overall C1s peak (high resolution XPS) [2],C—N fraction of overall C1s peak (high resolution XPS) [2],N/C ratio (XPS survey scan) [2],N—C═O fraction of overall C1s peak (high resolution XPS) [2],Net charge @ pH 7.0 [3],release from the nanotubes compared to that of BSA (in words) [1]
"Bovine Serum Albumin: model protein, larger molecule with net negative charge, loaded into titania nanotubes",25,50,65,0.81,0.11,0.123,0.08,−18,–
"Lysozyme: model protein, smaller in size with net positive charge, loaded into titania nanotubes",36,85,110,0.73,0.22,0.215,0.03,+7,much slower
